Measurements taken from patent publication US20240182561A1, “CALCIUM VOLTAGE-GATED CHANNEL AUXILIARY SUBUNIT GAMMA 1 (CACNG1) BINDING PROTEINS AND CACNG1-MEDIATED DELIVERY TO SKELETAL MUSCLE” (Regeneron Pharmaceuticals, Inc., priority 2022, published 2024).

B1: H1M31941N (antibody)
heavy: QVQLVQSGAEVKKPGASVKVSCKASGYAFTTYGITWVRQAPGQGLEWMGWISAYNGNTNYAEKVQGRFTMTTDTSTNTAYMELRSLRSDDTAVYFCARKGHYGSGTYYNPFGFDFWGQGTMVTVSSAKTTPPSVYPLAPGSAAQTNSMVTLGCLVKGYFPEPVTVTWNSGSLSSGVHTFPAVLQSDLYTLSSSVTVPSSTWPSETVTCNVAHPASSTKVDKKIVPRDCGCKPCICTVPEVSSVFIFPPKPKDVLTITLTPKVTCVVVDISKDDPEVQFSWFVDDVEVHTAQTQPREEQFNSTFRSVSELPIMHQDWLNGKEFKCRVNSAAFPAPIEKTISKTKGRPKAPQVYTIPPPKEQMAKDKVSLTCMITDFFPEDITVEWQWNGQPAENYKNTQPIMDTDGSYFVYSKLNVQKSNWEAGNTFTCSVLHEGLHNHHTEKSLSHSPGK
light: EIMLMQSPGTLSLSPGERATLSCRASQSVSSSYLAWYQQKPGQAPRLLIYGASSRATDIPDRFSGSGSGTDFTLTISRLEPEDFAVYFCQQYYGSPWTFGQGTKVEIKRADAAPTVSIFPPSSEQLTSGGASVVCFLNNFYPKDINVKWKIDGSERQNGVLNSWTDQDSKDSTYSMSSTLTLTKDEYERHNSYTCEATHKTSTSPIVKSFNRGEC
B2: H2aM31941N: anti-CACNG1 antibody; HCVR SEQ ID NO: 25, LCVR SEQ ID NO: 29, HC SEQ ID NO: 151, LC SEQ ID NO: 152 (antibody)
heavy: B1 heavy
light: B1 light

What was measured:
HEK293 Hz = experiment: High content imaging-based cell binding assay; parameters: species or system human; settings: Table 11-1, HEK293 Hz; NB = no binding detected
Excerpt: (§1) To test the ability of anti-CACNG1 antibodies described herein to bind, internalize, and deliver payloads, cell binding and indirect cell killing assays were developed with primary human skeletal myoblasts (Cook Myosite Cat #SkMDC SK-1111), C2C12 mouse myoblasts (ATCC Cat #CRL-1772), and HEK293 cells engineered to express human and mouse CACNG1 (HEK293/hCACNG1 and HEK293/mCACNG1, respectively). To generate the HEK293/hCACNG1 and HEK293/mCACNG1 cell lines, FuGEGE 6 (Promega, Cat #E2691/5/3) was used to transfect HEK293HZ cells with a human CACNG1 (hCACNG1; amino acid M1-H222, Accession #NP_000718.1) or mouse CACNG1 (mCACNG1; amino acid M1-H223, Accession #NP_031608.1) expression vector. HEK293HZ is a highly transfectable subclone of HEK293 cells (1) authenticated via STIR (short tandem repeat) profiling to be 81% identical to HEK293 cells sourced from ATCC). The HEK293HZ cell line was maintained in DMEM+10% FBS+1% L-glutamine/penicillin/streptomycin, while HEK293/hCACNG1 and HEK293/mCACNG1 cell lines were maintained in DMEM+10% FBS+1% L-glutamine/penicillin/streptomycin+500 ug/mL G418. […]
(§2) Relative binding of anti-CACNG1 antibodies was assessed across the entire panel of cell lines via imaging analysis. […] Images were acquired with a 10× objective on the Opera Phenix (Perkin Elmer) and relative fluorescence units (RFU) was determined using Harmony software (Perkin Elmer).

CACNG1^Hu/Hu myofibers = experiment: Antibody binding to single myofibers ex vivo; parameters: species or system mouse; settings: 100 nM antibody, 30 minutes; FIG. 2
Procedure: (§3) Single myofibers were isolated from either wildtype mice, mice that were homozygous for the deletion of CACNG1 (referred to as CACNG1 knockout mice), or mice that were homozygous for the expression of human CACNG1 in place of mouse CACNG1 (referred to as CACNG1^Hu/Hu). The gastrocnemius muscle was removed, collagenase digested, and single myofibers were isolated, washed, and incubated overnight at 37° C. at 5% CO2, in DMEM+10% horse serum. Following overnight incubation, single myofibers were incubated with 100 nM of each CACNG1 antibody or an isotype control antibody for 30 minutes. Myofibers were then washed twice in DMEM+10% horse serum, and subsequently incubated with 10 μg/mL of fluorescent-conjugated secondary antibodies for 30 minutes, washed twice in DMEM+10% horse serum, and then fixed with 4% paraformaldehyde (PFA) for 15 minutes at room temperature. Single fibers were then washed twice with PBS, stained with Hoechst for 5 minutes, washed once more with PBS, then transferred to microscope slides, cover slipped, and imaged using a Zeiss LSM 710 confocal microscope.

[1] = test system: wildtype or CACNG1 knockout myofibers; experiment: Antibody binding to single myofibers ex vivo; parameters: species or system mouse; settings: 100 nM antibody, 30 minutes; FIG. 2
Procedure: as §3

HEK293 = experiment: Indirect (secondary) cell killing assay; assay type: cell-based, human; settings: Table 11-3; maximum % kill
Excerpt: as §1, with “ATCC).” for “ATCC). The HEK293HZ cell line was maintained in DMEM+10% FBS+1% L-glutamine/penicillin/streptomycin, while HEK293/hCACNG1 and HEK293/mCACNG1 cell lines were maintained in DMEM+10% FBS+1% L-glutamine/penicillin/streptomycin+500 ug/mL G418.”
An indirect cell killing assay was used to assess the ability of anti-CACNG1 antibodies to internalize and deliver payloads into cells. In vitro cytotoxicity of the anti-CACNG1 antibodies alone or in combination with Fab anti-human Fc or Fab anti-mouse Fc secondary antibodies conjugated to Duocarmycin DM (Moradec, Cat #AH-202-DD-50 or Cat #AM-202-DD-50) were evaluated using the CellTiter-Glo 2.0 Assay Kit (Promega, Cat #G9243), in which the quantity of ATP present is used to determine the number of viable cells in culture. […]

HEK293/mCACNG1 = target: T1, HEK293/mCACNG1 (Mus musculus, UniProt O70578); experiment: High content imaging-based cell binding assay; settings: Table 11-1, 293/mCACNG1; NB = no binding detected
T1 construct: mouse CACNG1 (mCACNG1); expressed in transfected cells
T1 sequence (O70578 1-223): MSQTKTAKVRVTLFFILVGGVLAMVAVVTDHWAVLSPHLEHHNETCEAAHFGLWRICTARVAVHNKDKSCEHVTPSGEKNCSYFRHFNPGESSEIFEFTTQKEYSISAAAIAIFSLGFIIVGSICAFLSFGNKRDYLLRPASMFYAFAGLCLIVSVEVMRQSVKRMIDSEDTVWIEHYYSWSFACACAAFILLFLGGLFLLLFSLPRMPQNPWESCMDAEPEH
Excerpt: as §1, §2

C2C12 mouse myotubes = experiment: High content imaging-based cell binding assay; settings: Table 11-1, C2C12; NB = no binding detected
Excerpt: as §1, §2

human CACNG1 nanodisc = target: T2, human CACNG1 nanodisc (Homo sapiens, UniProt Q06432); experiment: Biacore binding kinetics of anti-CACNG1 antibodies to surface-captured human CACNG1 nanodisc; settings: 25° C., 1:1 binding model
T2 construct: PΔΔCt RE (C); Flag (C)
Procedure: This Example relates to evaluation of binding kinetics of purified anti-CACNG1 antibodies described herein to a human CACNG1 nanodisc capture surface using real-time surface plasmon resonance biosensor technology with a Biacore T200 instrument.
Equilibrium dissociation constants (KD values) for nanodisc embedded human CACNG1 expressed with a C-terminal […] tag (human CACNG1 nanodisc; concentration 0.82 mg/ml) binding to purified anti-CACNG1 antibodies were determined using a real-time surface plasmon resonance biosensor technology with a Biacore T200 instrument. The CM5 Biacore sensor surface was derivatized by amine coupling with a monoclonal mouse anti-His antibody (Cytiva; Marlborough, MA). All Biacore binding studies were performed in a buffer composed of 0.01M HEPES, 0.15M NaCl, 1 mM CaCl2, 0.5 mM MgCl2, pH 7.4 (HBS-N++ running buffer). […]
The specific SPR-Biacore sensorgrams were obtained by a double referencing procedure. […] Kinetic association (ka) and dissociation […] rate constants were determined by fitting the real-time sensorgrams to a 1:1 binding model using Scrubber v2.0c curve fitting software. Binding dissociation equilibrium constants (KD) and dissociative half-lives (t %) were calculated from the kinetic rate constants as: […]

T2 sequence (Q06432 whole entry): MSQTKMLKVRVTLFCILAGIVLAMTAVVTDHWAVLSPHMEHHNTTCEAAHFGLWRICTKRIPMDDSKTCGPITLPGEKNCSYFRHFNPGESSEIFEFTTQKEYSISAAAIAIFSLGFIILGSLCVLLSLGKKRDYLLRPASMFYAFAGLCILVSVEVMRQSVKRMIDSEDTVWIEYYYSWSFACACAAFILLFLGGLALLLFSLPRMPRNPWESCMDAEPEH

| Molecule | EC50 (HEK293 Hz) [nM] | binding to CACNG1^Hu/Hu myofibers ex vivo (CACNG1^Hu/Hu myofibers) | binding to wildtype or CACNG1 knockout myofibers [1] | % KILL (HEK293) [%] | EC50 (HEK293/mCACNG1) [nM] | EC50 (C2C12 mouse myotubes) [nM] | ka (human CACNG1 nanodisc) [M⁻¹ s⁻¹] | kd (human CACNG1 nanodisc) [s⁻¹] |
| --- | --- | --- | --- | --- | --- | --- | --- | --- |
| B1 | > 100 | demonstrated binding | did not bind | 0.0 | > 100 | > 100 | – | – |
| B2 | – | – | – | – | – | – | 342000 | 0.000406 |
